Data set [1] deals with T1, LbNOX (Levilactobacillus brevis, UniProt Q03Q85).
T1 sequence (Q03Q85 1-450): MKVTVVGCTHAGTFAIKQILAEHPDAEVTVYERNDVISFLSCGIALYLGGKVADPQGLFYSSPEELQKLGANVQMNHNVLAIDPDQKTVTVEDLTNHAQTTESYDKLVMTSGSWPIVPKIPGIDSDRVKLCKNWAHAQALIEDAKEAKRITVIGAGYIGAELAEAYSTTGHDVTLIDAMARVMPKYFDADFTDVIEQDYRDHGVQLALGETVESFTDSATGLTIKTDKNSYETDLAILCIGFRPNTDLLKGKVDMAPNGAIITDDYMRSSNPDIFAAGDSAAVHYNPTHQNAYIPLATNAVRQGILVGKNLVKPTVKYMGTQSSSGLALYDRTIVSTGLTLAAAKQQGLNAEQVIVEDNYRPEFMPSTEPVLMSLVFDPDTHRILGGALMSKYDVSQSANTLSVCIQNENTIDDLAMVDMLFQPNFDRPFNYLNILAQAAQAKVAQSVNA
The experiment in a line: X-ray crystal structure. To be noted: NADH-soaked crystal; His-tag not cleaved. In kind it is binding.

For data set [2], the target named is TPNOX (triphosphopyridine nucleotide oxidase), quintuple mutant of Lactobacillus brevis H2O-forming NADH oxidase (LbNOX) (Lactobacillus brevis).
Substrate in data set [3]: NC(=O)C1=CN([C@@H]2O[C@H](COP(=O)(O)OP(=O)(O)OC[C@H]3O[C@@H](n4cnc5c(N)ncnc54)[C@H](OP(=O)(O)O)[C@@H]3O)[C@@H](O)[C@H]2O)C=CC1
The data set can be described thus: purified protein. To be noted: 50 mM NaPi, pH 7.5, 150 mM NaCl, 37 °C, O2 as co-substrate.

As usually defined, the stoichiometry N is a count of units in the complex or per binding partner. Broadly, the Km is the substrate concentration at which the rate is half of its maximum. Broadly, the kcat is the number of substrate molecules converted per active site and unit of time at saturation. The term kcat/Km denotes the turnover number divided by the Michaelis constant.

In the case of `Cc1cc2nc3c(=O)[nH]c(=O)nc-3n(C[C@H](O)[C@H](O)[C@H](O)COP(=O)(O)OP(=O)(O)OC[C@H]3O[C@@H](n4cnc5c(N)ncnc54)[C@H](O)[C@@H]3O)c2cc1C` [FAD], in data set [1], the X-ray crystal structure entry is listed as “can the nicotinamide ring of NADH come into proximity of FAD”.
“TPNOX (triphosphopyridine nucleotide oxidase), quintuple mutant of Lactobacillus brevis H2O-forming NADH oxidase (LbNOX) (enzyme)” displayed a stoichiometry N in data set [2] of 4.

B1: LbNOX (Levilactobacillus brevis ATCC 367) (protein)
chain: T1 sequence (Q03Q85 1-450)
With B1, in data set [3], the Km is 621 ± 124 µM, the kcat is 0.052 ± 0.001 s⁻¹ and the kcat/Km stood at 83 ± 16 M⁻¹ s⁻¹.

Values taken from paper PMC5605434 (Nature chemical biology, 2017).
